# Earlier results in PMC2574613.
# Molecular target: glycoprotein Ibα (Homo sapiens) (UniProt P07359)
# Sequence (P07359 17-652): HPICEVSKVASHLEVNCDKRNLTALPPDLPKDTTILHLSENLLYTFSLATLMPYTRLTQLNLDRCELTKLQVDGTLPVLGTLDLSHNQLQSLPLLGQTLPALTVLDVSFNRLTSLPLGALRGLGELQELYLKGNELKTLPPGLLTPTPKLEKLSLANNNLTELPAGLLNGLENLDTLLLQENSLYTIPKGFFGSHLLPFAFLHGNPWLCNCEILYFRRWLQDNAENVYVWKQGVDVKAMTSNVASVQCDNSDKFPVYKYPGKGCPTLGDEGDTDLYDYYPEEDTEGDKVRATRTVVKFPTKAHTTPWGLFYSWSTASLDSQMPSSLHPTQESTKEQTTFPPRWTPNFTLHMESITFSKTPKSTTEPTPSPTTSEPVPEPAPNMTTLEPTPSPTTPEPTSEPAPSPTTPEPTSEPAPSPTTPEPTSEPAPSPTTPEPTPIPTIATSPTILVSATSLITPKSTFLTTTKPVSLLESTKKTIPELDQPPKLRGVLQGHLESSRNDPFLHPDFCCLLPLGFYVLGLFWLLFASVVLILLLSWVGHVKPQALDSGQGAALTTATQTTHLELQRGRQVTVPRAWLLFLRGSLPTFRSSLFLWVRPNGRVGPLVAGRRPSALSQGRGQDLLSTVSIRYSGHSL
# GspB N-terminal basic region, sequence (Q939N5 237-603): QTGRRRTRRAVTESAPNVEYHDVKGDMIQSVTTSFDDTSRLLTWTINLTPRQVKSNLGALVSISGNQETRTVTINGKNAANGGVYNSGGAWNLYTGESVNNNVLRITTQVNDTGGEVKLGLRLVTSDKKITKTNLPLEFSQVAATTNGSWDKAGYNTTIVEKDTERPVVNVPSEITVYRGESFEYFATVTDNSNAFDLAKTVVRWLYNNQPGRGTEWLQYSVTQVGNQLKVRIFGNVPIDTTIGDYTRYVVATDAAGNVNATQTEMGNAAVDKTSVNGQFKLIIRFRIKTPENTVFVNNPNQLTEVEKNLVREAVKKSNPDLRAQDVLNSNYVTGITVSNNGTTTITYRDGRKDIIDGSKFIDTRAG
substance,measurement,value
GspB N-terminal basic region (from UniProt Q939N5),Kd,23.8 nM
